Results published in the RNAGym collection of RNA variant scans (doi:10.1073/pnas.2313332121).

B1: TPR t1 (parent)
chain: GACCAAUCUGCCCUCAGAGCUCGAGAACAUCUUCGGAUGCAGAGGAGGCAGGCUUCGGUGGCGCGAUAGCGCCAACGUCCUCAACCUCCAAUGCAUCCCACCACAUGAUGAUGCCUGAAGAGCCUUGGUUUUUUG

Variants of: B1
Test: polymerase ribozyme fitness, log enrichment relative to wild type (log ratio); higher = more active; in vitro selection for triplet polymerase activity
Summary of the method: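 Mutant libraries were PCR-built and transcribed for each subunit of a heterodimeric triplet polymerase ribozyme and selected for one round in triplicate at −7 °C, frozen, before gel excision of extended constructs and streptavidin-bead capture. Input and output libraries were Illumina-sequenced, keeping genotypes with ≥10 input reads and ≥1 read per output. Fitness is a logarithmic ratio of genotype to wild-type enrichment, in base 2, using inverse-variance-weighted replicate averages.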

Variant | polymerase ribozyme fitness (log ratio)
GACCACUCUGCCCUCAGAGCUCGAGAACAUCUUCGGAUGCAGAGGAGGCAGGCUUCGGUGGCGCGAUAGCGUCAACGUCCUCAACCUCCAAUUCAUCCCUCCACAUGAUGAUGCCUGAAGAGCCUUGGUUUUUUG [A6C C72U G93U A100U] | -2.39
GACCACUCUGCCCUCAGAGCUCGAGAACAUCUUCGGAUGCAGAGGAGGCAGGCUUCGGUGACGCGAUAGCGCCAACGUCCUCAACCUCCAAUGCAUCCCACCACAUGAUGAUGCCUGAAGAGCCUUGGUUUUUUG [A6C G61A] | -0.848
GACCACUCUGCCCUCAGAGCUCGAGAACAUCUUCGGAUGCAGAGGAGGCAGGCUUCGGUGGCGCGAUAGCGUCAACGUCCUCAACCUCCAAUGCAUCCCACCACAUGAUGAUGCCUGAAUAGCCUUGGUUUUAUG [A6C C72U G120U U133A] | -0.162
GACCACUCUGCCCUCAGAGCUCGAGAACAUCUUCGGAUGCAGAGGAGGCAGGCUUCCGUGGCGCGAUAGCGCCAACGUACUCAAUCUCCAAUGCAUCCCACCACAUGAUGAUGCCUGAAGAGCCUUGGUUUUUUG [A6C G57C C79A C85U] | -2.83
GACCACUCUGCCCUCAGAGCUCGAGAACAUCUUCUGAUACAGAGGAGGCAGGCUUCGGUGUCGCGAUAGCGCCCACGUCCUCAACUUCCAAUGCAUCCCAACACAUGAUGAUGCUUGAAGAGCCUUGGUUUUUUG [A6C G35U G39A G61U A74C C86U C101A C115U] | -6.88
GACCACUCUGCCCUCAGAGCUCGAGAACAUCUUCGGAUGCAGAGGAGGCAGGCUUCGGUGGCGCGAUAGCGCUAACGUCCUCAACCUCUAAUGCAUCCCACCACAUGAUGAUACCUGAAGAGCCUUGGUUUUUUG [A6C C73U C89U G113A] | -2.7
GACCACUCUGCCCUCAGAGCUCGAGAACAUCUUCGGAUGCAGAGGAGGCAGGCUUCGCUUGCGCGAUAGCGCCAACGUCCUCAACCUCCAAUGCCUCCCACCACAUGAUGAUGCCUGAAGAGCCUUGGUUUUUUG [A6C G58C G60U A95C] | -1.05
GACCACUCUGCCCUCAGAGCUCGAGAACAUCUUCGGAUGCAGAGGACGCAGGCUUCGGUGGCGCGAUAGCUCCAACGUCCUCAACCUCCAAUGCAUCCCACCACAUGAUGAUGCCUGAAGAGCCUUGGUUUUUUG [A6C G47C G71U] | -2.53
GACCACUCUGCCCUCAGAGCUCGAGAACAUCUUCGGAUGCAGAGGAGGCAGGCUUCGGUGGCGCGAUAGGGCCAACGUCCUAAACCUCCAAUGCAUCCCACCACAUGAUGAUGCCUGAAGAGCCUUGGUUUUUUG [A6C C70G C82A] | -2.15
GACCACUCUGCCCUCAGAGCUCGAGAACAUCUUCGGAUGCAGAGGAGGCAGGCUUCGGUGGCGCGAUAGAGCUAACGUCCUCAACCUCCAAUGCAUCCCACCACAUGAUGAUGCCUGAAGAGCCUUGGUUUUUUG [A6C C70A C73U] | -2.44
GACCACUCUGCCCUCAGAGCUCGAGAACAUCUUCGGAUGCAGAGGAUGCAGGCUUCGGUGGCGCGAUAGCGCCAACGUCCUCAACCUCCAAUGCAUCCCACCACAUGAUGAUGCCUGAAGAGCAUUGGUUUUUUG [A6C G47U C124A] | -1.59
GACCACUCUGCCCUCAGACCUCGAGAACAUCUUCGGAUGCAGUGGAGGCCGGCUUCGGUGGCGCGAUAGCGCCAACGUCCUCAACCUCCAAUGCAGCCCACCACAUGAUGAUGCCUGAAGAGCCUUGGUUUUUUG [A6C G19C A43U A50C U96G] | -4.2
GACCACUCUGCCCUCAGAGCUCGAGAACAUCUUCGGAUGCAGAGGAGGCAGGCUUCGGUGGCGCGAUAGCGCCAAUGUCCUCAACCUCCAAUGCAUCCCAGCACAUGAUGAUGCCUGAAGAACUUUGGAUUUUUG [A6C C76U C101G G122A C124U U129A] | -2.42
GACCACUCUGCCCUCAGAGCUCGAGAACAUCUUCGGAUGCAGAGGAGCCAGGCUUCGGUGGCGCGAUAGCGCCAACGUCCUCAACCUCCAAUGCAUCCCACCACAUGAUGAUGCCUGAAGAGCCUUGGUUUUUUG [A6C G48C] | -1.5
GACCACUCUGCCCUCAGAGCUCGAGAACAUCUUCGGAUGCAGAGGAGGCAGGCUUCGGUGGCGCGAUAGCGCCAACGUCCUCAACCUCCAAUGCAUCCCAACACAUGAUGAUGCCUGAAGAGCCUUGGUUUAUUG [A6C C101A U132A] | -1.42
GACCACUCUGCCCUCAGAGCUCGAGAACAUCUUCGGAUGCAGAGGAGGCAGGCUUCCGUGGCGCGAUAGUGCCAACGUCCUCAACCUCCAAUGCAUCCCACCACAUGAUGAUGCCUGAAGAGCCUUGGUUUUUUG [A6C G57C C70U] | -0.399
GACCACUCUGCCCUCAGAGCUCGAGAACAUCUUCGGAUGCAGAGGAGGCAGGCUUCGGUGACGCGAUAGCGCCAACGUCCUCAACCUCCAAAGCAUCCCACCACAUGAUGAUGCCUGAAGAGCCUUGGUUUUUUG [A6C G61A U92A] | -3.09
GACCACUCUGCCCUCAGAGCUCGAGAACAUCUUCGGAUGCAGAGGAGGCAGGCUUCGGUGGCGCGAUAGCGUCAACGUCCUCAACCUCCAAUGCAUCCCACCACCUGAUGAUGCCUGAAGAGCCUUGGUUCUUUG [A6C C72U A105C U131C] | -2.59
GACCACUCUGCCCUCAGAGCUCGAGAACAUCUUCGGAUGCAGAGGAGGCAGGCUUCCGUGGCGCGAUAGCGCCAACGUCCUCAACCUCCAAUGCAUCCCACCACAUGAUGAUGCCUGAAGAGCCUUGGUUUUUUG [A6C G57C] | -0.375
GACCACUCUGCCCUCAGAGCUCGAGAACAUCUUCUGAUGCAGAGGAGGCAGGCUUCGGCGGCGCGAUAGCGCCAACGUCCUCUACCUCCAAUGCAUCGCACCACAUGAUGAUGCCUGAAGUGCCUUGGUUUUUUG [A6C G35U U59C A83U C98G A121U] | -4.28
GACCACUCUGCCCUCAGAGCUCGAGAACAUCUUCGGAUGCAGAGGAGUCAGGCUUCGGUGGCGCGAUAGCGUCAACGUCCUCAACCCCCAAUGCAUCCCACCACAUGAUUAUGCCUGAAGAGCCUUGGUUUUUUG [A6C G48U C72U U87C G110U] | -2.52

Variant | polymerase ribozyme fitness (log ratio)
GACCACUCUGCCCUCAGAGCUCGAGAACAUCUUCGGAUGCAGAGGAGGCAGGCUUCGGUGGCGCGAUAGCGUUAACGUCCUCAACCUCCAAUGCAUCGCACCACAUGAUGAUGCAGGAAGAGCCUUGGUUUUUUG [A6C C72U C73U C98G C115A U116G] | -7.45
GACCACUCUGCCCUCAGAGCUCGAGAACAUCUUCGGAUGCAGAGGAGGCAGGCUUCGGUGGCGCGAUAGCGCCAACGUCCUCAACCUCCAAUGCAUCCCACCACAUGAUGAUGCGUGAAGAGCCUUGGUUUUUUG [A6C C115G] | -2.07
GACCACUCUGCCCUCAGAGCUCGAGAACAUCUUCGGAUGCAGACGAGGCAGGCUUCGAUGGCGCGAUAGCGCCAACGUCCUCAACCUCCAAUGCAACCCACCACAUGAUGAUGCCUGAAGAGCCUUGGUUUUUUG [A6C G44C G58A U96A] | -2.15
GACCACUCUGCCCUCAGAGCUCGAGAACAUCUUCGGAUGCAGAGGAGGCAGGCUUCGGUGGCGCGAUAGCGCCAACGUCCUCAACCUCCAAUGCAUCACACCACAUGAUGAUGCCUGAAGAGCCUUGGUUUUUUG [A6C C98A] | -4.73
GACCACUCUGCCCUCAGAGCUCGAGAACAUCUUCGGAUGCAGAGGAGGCAGGCUUCGCUGGCGCGAUAGCGCCAACGUCCUCAACCUCCAAGGCAUCCCACCACAUGAUGAUGACUGAAGAGCCUUGGUAUUUUG [A6C G58C U92G C114A U130A] | -4.44
GACCACUCUGCCCUCAGAGCUCGAGAACAUCUUCGGAUGCAGAGGAGGCAGGCUUCGGUGACGCGAUAGCGCCAACGUCCUCAACCUCCAAUGCAUCCCACCACAUGAUGAUGCUUGAAGAGCCUUGGUUUUUUG [A6C G61A C115U] | -1.31
GACCACUCUGCCCUCAGAGCUCGAGAACAUCUUCGGAUGCAGAGGAGGCAGGCUUCGGUGGCGCGAUAGCGGCAACGUCCUCAACCUCCAAUGCAUCCCACCACAUGAUGAUGCCUGAAGAGCCUUGGUUUUUUG [A6C C72G] | -0.682
GACCACUCUGCCCUCAGAGCUCGAGAACAUCUUCGCAUGCAGAGGAGGCAGGCUUCGGUGGCGCGAUAGCGCCAACGUCCUCAACCUCCAAUGCAUCCCACCACAUGAUGAUGCCUGAAGAGCCUUGGUUUUUUG [A6C G36C] | -1.4
GACCACUCUGCCCUCAGAGCUCGAGAACAUCUUCGGAUGCAGAGGAGGCAGGCUUCGGUGGCGCGAUAGCGCCAACGUCCUCAACCUUCAAUGCAUCCCACCACAUGAUGAUGCCUGAAGAGCCUUGGUUUUUUG [A6C C88U] | -0.228
GACCACUCUGCCCUCAGAGCUCGAGAACAUCUUCGGAUGCAGAGGAGGCAGGCUUCGGUGGCGCGAUAGCGCCAACGUCCUCAACCUCCAAUGCAUUCCACCACAUGAUGAUGCCUGAAGAGCCUUGGUUUUUUG [A6C C97U] | -1.01
GACCACUCUGCCCUCAGAGCUCGAGAACAUCUUCGGAUGCAGAGGAGGCAGGCUUCGGUGGCGCGAUAGCGCCAACGUCCUCAACCUCCAAUGCAUGCCACCACAUGAUGAUGCCUGAAGAGCCUUGGUUUUUUG [A6C C97G] | -5.16
GACCACUCUGCCCUCAGAGCUCGAGAACAUCUUCGGAUGCAGAGGAAGCAGGCUUCGGUGGCGCGAUAGCGCCAACGUCCUCAACCUCCAAUGCAUCCCACCACAUGAUGAUGCCUGAAGAGCGUUGGUUUUUUG [A6C G47A C124G] | 0.159
GACCACUCUGCCCUCAGAGCUCAAGAACAUCUUCGGAUGCAGAGGAGGCAGGCUUCGGUGGCGCGAUAGCGCCAACGUCCUCAACCUCCAAUGCAUCACACCACAUGAUGAUGCGUGAAGAGCCUUGGUUUUUUG [A6C G23A C98A C115G] | -7.8
GACCACUCUGCCCUCAGAGCUCGAGAACAUCUUCGGAUGCAGAGGAUGCAGGCUUCGGUGGCGCGAUAGCGCCAACGUCCUCAACCUCCAAUGCAUCCCACCACAUGAUGAUGCCUGAAGAGCCUUGGUUUUUUG [A6C G47U] | -1.55
GACCACUCUGCCCUCAGAGCUCGAGAACAUCUUCGGAUGCAGAGGAGGCAGGCUUCGGUGGCGCGAUAGCGUCAACGUCCUCAACCUCCAGUGCAUCCCACCACAUGAUGAUGCCUGAAGUGCCUUGCUUUUUUG [A6C C72U A91G A121U G128C] | -0.723
GACCACUCUGCCCUCAGAGCUCGAGAACAUCUUCGGAUGCAGAGGAGGCAGGCUUCGGUGGGGCGAUAGCGCCAACGUCCUCAACCUCCAAUGCAUCCCACCACAUGAUGAUACCUGAAGAGCCUUGGUUUUUUG [A6C C62G G113A] | -3.34
GACCACUCUGCCCUCAGAGCUCGAGAACAUCUUCGGAUUCAGAGGAGGCAGGCUUCGGUGGCGCGAUAGCGCCAACUUCCUCAACCUCCAAUGCAUCCCACCACAUGAUGAUUGCUGAAGAGCCUUGGUUUUUUG [A6C G39U G77U G113U C114G] | -3.79
GACCACUCUGCCCUCAGAGCUCGAGAACAUCUUCGGAUGCAGACGAGGCAGGCUUCGGUGACGCGAUAGCGCCAACGUCAUCAACCUCCAAUGCAUCCCACCACAUGAUGAAGCCUGAAGAGCCUUGGUUUUUUG [A6C G44C G61A C80A U112A] | -4.74
GACCACUCUGCCCUCAGAGCUCGAGAACAUCUUCGGAUGCAGAGGAGCCAGGCUUCGGUGGCGCGAUAGCGUCAACGUCCUCAACCUCCAAUGCAUCCCACCACAAGAUGAUGCCUGAAGAGCCUUGGUUUUUUG [A6C G48C C72U U106A] | -1.51
GACCACUCUGCCCUCAGAGCUCGAGAACAUCUUCGUAUGCAGAGGAGGCAGGCUUCGGUGGCGCGAUAGCGCCAACGUCCUCAACCUCCAAUGCAGCCCACCACAUGAUGAUGCCUGAACAACCUUGGUUUUUUG [A6C G36U U96G G120C G122A] | -0.981
GACCACUCUGCCCUCAGAGCUCGAGAACAUCUUCGGAUGCAGAGGAGGCAGGCUUCGGUGGCGCGAUAGCGCCAACGUCCUAAACCUCAAAUGCAUCCCACCACAUGAUGAUGCCUGAAGAGCCUUGGUUUUUUG [A6C C82A C89A] | -2.13
